“Also recorded” adds a separate entry of the source. *1 amine or outer side, *2 acyl side, *3 side chain or, on linkers, in order; H or OH if unused. Where a SMILES comes first, the peptide text is derived from it. Where no end group is shown, it is not given here. The star is where a group is joined. Doxorubicin(3'-N) = COc1cccc2c1C(=O)c1c(O)c3c(c(O)c1C2=O)C[C@@](O)(C(=O)CO)C[C@@H]3O[C@H]1C[C@H](N*)[C@H](O)[C@H](C)O1; Suc = O=C(CCC(=O)[*:2])[*:1]
Experiments:
[1] = In situ cerebral perfusion, penetration into the brain (influx constant Kin); type: in vivo, rat
Protocol: The rats are perfused with the buffer containing free doxorubicin or compounds No. 1 or 2. The doxorubicin is radio-marked with carbon 14 in each product (specific activity=9.4 microCi/mg, Amersham, France). The products are perfused at a concentration of 0.33 microCi/ml or 0.035 mg/rat.
The heart is stopped by cutting the ventricles immediately before perfusion starts, in order to prevent reflux of the perfusate during the perfusion.
The brain is removed quickly after decapitation. The brain is dissected on a mirror into 8 regions, namely Hypothalamus (HY), frontal Cortex (CF), Mesencephale (MS), Occipital Cortex (CO), Parietal Cortex (CP), Thalamus (TH), Hippocampus (HP), Striatum (ST), which are placed in previously calibrated glass flasks and then weighed. These structures and 50 microliters of perfusate are digested for two hours in 1 ml of soluene at 60° C. A scintillating cocktail (10 ml, Pico-fluor, Packard) is added to each sample and the quantity of tracers contained in them is measured by double counting in liquid scintillation (Packard, Tricarb, 1900TR).
This study consisted of comparing penetration in the HEB of doxorubicin alone with doxorubicin using compounds numbers 1 and 2 as vectors. After 60 seconds perfusion in the buffer, the penetration of products was estimated using the influx constant or Kin in microl/sec/g. […]

[2] = Capillary depletion after cerebral perfusion and rinsing (distribution volume Vd); type: in vivo, rat
Protocol: This method is used to measure the distribution of products between the cerebral parenchyma and endothelial cells, Triguero et al., 1990, J. Neurochem. 54, 1882-1888). After 60 seconds of perfusion, that may or may not be followed by 30 seconds rinsing, the right hemisphere is removed, its meninges and choroid plexus are removed, and it is then homogenized in 3.5 ml of Hepes buffer (10 mM of Hepes, 141 mM of NaCl, 4 mM of KCl, 1 mM of NaH2PO4, 2.8 mM of CaCl2, 1 mM of MgSO4 and 10 mM of D-glucose, pH=7.4). After grinding in the potter, 4 ml of solution containing 4% of Dextran (PM=76900) are added and the mix is stirred vigorously in order to obtain a […]. All these operations are carried out at 4° C. in less than 5 minutes. After taking a sample of the homogenate thus obtained, the homogenate is then put into the centrifuge for 15 minutes at 5400 g in order to separate the endothelial cells present in the base of the cerebral parenchyma that remained in the floating material. The results are expressed as distribution volumes in the floating material and the base.
This method measures the distribution of products between the cerebral parenchyma and endothelial cells. Capillary depletion is carried out after 60 seconds perfusion followed by 30 seconds rinsing. The distribution volumes (Vd) in endothelial cells and the cerebral parenchyma are expressed in microliters/g.

HEB = test: Tolerance to products: integrity of HEB by [3H]-sucrose distribution volume during in situ cerebral perfusion; details: co-perfused with [3H]-sucrose
From the text: This is a fast and sensitive method of evaluating the penetration of various compounds into the central nervous system (Takasato et al., 1984, Am. J. Physiol. 247, 484-493; Allen et al., 1997, Pharm Res. 14, 337-341). Two month old male Sprague-dawley rats (250-350 g. Iffa-Credo; l'Arbresle, France) are anaesthetised. After exposure of the common carotid, the right external carotid artery is bound at the junction with the internal carotid and the common carotid is bound between the heart and the site at which the catheter is installed (polyethylene catheter, ID=0.76). This catheter, previously filled with a solution of heparin (100 units/ml) is inserted into the common carotid. Rats are perfused with the perfusion buffer (128 mM NaCl, 24 mM NaHCO3, 4.2 mM KCl, 2.4 mM NaH2PO4, 1.5 mM CaCl2, 0.9 mM MgSO4, and 9 mM D-glucose). This buffer is filtered and then is bubbled using a mix containing 95% O2/5% CO2 in order to keep the pH close to 7.4 and to supply oxygen to the brain during the perfusion.
It is estimated that this volume must not exceed […]. For larger volumes, it is concluded that the permeability of HEB is abnormal.
Doxorubicin, compounds numbers 1 and 2 were injected in the presence of sucrose and the integrity of the HEB is measured.

[3] = Intravenous injection in NMRI-nude mice, radioactivity in the brain; details: for Product quantity in brain: i.v. 2.5 mg DXR base/kg
Protocol: NMRI-nude mice are injected intravenously with compound No. 1 or doxorubicin alone at a dose of 2.5 mg/kg (equivalent in doxorubicin). The doxorubicin is marked with carbon 14 (about 0.5 microCi is injected per mouse). The mice are sacrificed after 1, 5, 15, 30, 60, 180, 480 and 1360 minutes. The organs are then removed and counted. The quantity of radioactivity in each organ is then expressed as the quantity of product per gram of organ. In this study, we used five mice for each period of time.
After intravenous injection of compound No. 1, nude mice were sacrificed at different times and the total radioactivity in the brain was counted and expressed as a quantity of product per gram of brain.

[4] = for Reduction of the influx constant after rinsing: 60 s perfusion then 30 s rinsing with buffer without tracer
Protocol: For rats on which the rinsing step is carried out, the catheter is inserted into the common carotid as described above, and is then connected to a 4-way valve (opposite passages) (Hamilton, USA) connected to two syringes; one containing the radio-marked tracer (syringe A) and the other the buffer alone (syringe B). Once the catheter is in position and the connections have been made correctly, the thoracic cage of the rat is opened and the heart is cut. The contents of syringe A are then immediately perfused at a rate of 10 ml/min. After 60 seconds, the contents of syringe B are injected in turn at the same rate. The rat is decapitated after 30 seconds of rinsing.
Rinsing of cerebral capillaries by perfusion of the buffer without tracer for 30 seconds eliminates the fraction of the product being studied adhering to the luminal membrane of endothelial cells, if any.

[5] = Hot Plate model (latency time); type: in vivo, mouse; details: for Effect on latency time / analgesic activity: i.v. injection, latency measured 0 to 90 minutes; for Latency time: 2 mg/Kg i.v. (dalargine equivalent), 5 minutes after injection
Protocol: For the purposes of this study, the biological activity of dalargine alone was compared with the biological activity of dalargine vectorised with SynB1. Consequently, the “Hot Plate” model in the mouse was used. In this model, the mouse is placed on a hot plate and the time that the mouse takes to react to heat is measured as the “latency time”.
2 mg/Kg of each product was injected intravenously into the mouse (the dose corresponding to the quantity of dalargine). After times varying from 0 to 90 minutes, the latency time was measured. […] The latency time is constant. […] For example 5 minutes after injection, the latency time of vectorised dalargine is 22.75 seconds, whereas it is only 7.6 seconds for dalargine alone.

[6] = Intravenous injection in CD1 mice, whole-body autoradiography, brain; details: i.v. 2 mg DXR base/kg
Protocol: In the case of compound No. 2, the CD1 mouse is injected intravenously with compound No. 2 or with free doxorubicin at a dose of 2 mg/kg (equivalent in doxorubicin). Doxorubicin is marked with carbon 14 (about 3 microCi is injected per mouse). The mouse is sacrificed after 15 minutes, 2 hours and 8 hours, and the product quantity in each organ is analysed using the “Whole-body autoradiography” technique. The quantity of radioactivity in each organ is then expressed as a quantity of product per gram of organ. We used one mouse per group in this experiment.
The total radioactivity in the brain is analysed using the “Whole body autoradiography” method and is expressed as a product quantity per gram of brain.

[7] = 60 seconds perfusion followed by 30 seconds rinsing

## COc1cccc2c1C(=O)c1c(O)c3c(c(O)c1C2=O)C[C@@](O)(C(=O)CO)C[C@@H]3O[C@H]1C[C@H](NC(=O)CCC(=O)N[C@@H](CCCNC(=N)N)C(=O)N[C@@H](CCCNC(=N)N)C(=O)N[C@@H](CC(C)C)C(=O)N[C@@H](CO)C(=O)N[C@@H](Cc2ccc(O)cc2)C(=O)N[C@@H](CO)C(=O)N[C@@H](CCCNC(=N)N)C(=O)N[C@@H](CCCNC(=N)N)C(=O)N[C@@H](CCCNC(=N)N)C(=O)N[C@@H](Cc2ccccc2)C(=O)O)[C@H](O)[C@H](C)O1 [No. 5, Doxo-CO—(CH2)2—CO-RRLSYSRRRF] ({Doxorubicin(3'-N)-Suc}-RRLSYSRRRF-OH)
[1]; 60 seconds perfusion in the buffer
  Increase of transfer into the brain (Kin) compared with doxorubicin alone: five times
[2]; [7]
  Penetration in the cerebral parenchyma compared with free doxorubicin: 50 times
  Vd in the cerebral parenchyma: 98.32 µL/g

## Doxo-CO—(CH2)2—CO-RGGRLSYSRRRFSTSTGR ({doxorubicin-Suc}-RGGRLSYSRRRFSTSTGR) [Compound No. 1]
HEB; perfused dose 0.05 mg
  State of the HEB: Integral
HEB; perfused dose 0.8 mg
  State of the HEB: does not open the HEB abnormally; also recorded: Integral
[2]; [7]
  Vd in the cerebral parenchyma: 28.5 µL/g
[2]; 1 minute perfusion followed by 30 seconds rinsing
  Fraction of compound found in the cerebral parenchyma: About 60%
[3]; 1 min after i.v. injection
  Ratio of compound No. 1/doxorubicin (brain quantity): 3.4
[3]; 5 min after i.v. injection
  Ratio of compound No. 1/doxorubicin (brain quantity): 3.6
[3]; 15 min after i.v. injection
  Ratio of compound No. 1/doxorubicin (brain quantity): 10.5
[3]; 30 min after i.v. injection
  Ratio of compound No. 1/doxorubicin (brain quantity): 5
[3]; 60 min after i.v. injection
  Ratio of compound No. 1/doxorubicin (brain quantity): 3
[3]; 180 min after i.v. injection
  Ratio of compound No. 1/doxorubicin (brain quantity): 1
[3]; 1 min
  Product quantity in brain: 0.48 microg/g of brain
[3]; 5 min
  Product quantity in brain: 0.18 microg/g of brain
[3]; 15 min
  Product quantity in brain: 0.42 microg/g of brain
[3]; 30 min
  Product quantity in brain: 0.25 microg/g of brain
[3]; 60 min
  Product quantity in brain: 0.12 microg/g of brain
[3]; 180 min
  Product quantity in brain: 0.03 microg/g of brain
[3]; 480 min
  Product quantity in brain: 0.02 microg/g of brain
[3]; 1360 min
  Product quantity in brain: 0.01 microg/g of brain
[4]; 60 s perfusion then 30 s rinsing
  Increase of penetration after rinsing compared with free doxorubicin (factor): 4
[4]
  Reduction of the influx constant after rinsing: 45%

## RGGRLSYSRRRFSTSTGR (PEPTIDE (1)..(18) Syn B1) [SynB1]
[5]
  Effect on latency time / analgesic activity: no analgesic activity

## Y-(D)A-GFLR-S-S-RGGRLSYSRRRFSTSTGR [dal-SynB1]
[1]; 60 seconds perfusion in the buffer (FIG. 7)
  Transfer into the brain (Kin) compared with dalargine alone: considerably increases its transfer into the brain
[5]
  Latency time: 22.75 s
  Effect on latency time / analgesic activity: an increase in the latency time is observed

## CC1(C)S[C@@H]2[C@H](NC(=O)Cc3ccccc3)C(=O)N2[C@H]1C(=O)O [benzylpenicillin, Benzylpenicillin, reference compound]
[2]; 30 seconds perfusion followed by 30 seconds rinsing
  Vd in the cerebral parenchyma: 3.94 µL/g

## Y-(D)A-GFLR [dalargine, reference compound]
[5]
  Latency time: 7.6 s
  Effect on latency time / analgesic activity: no effect was observed

## COc1cccc2c1C(=O)c1c(O)c3c(c(O)c1C2=O)C[C@@](O)(C(=O)CO)C[C@@H]3O[C@H]1C[C@H](N)[C@H](O)[C@H](C)O1 [doxorubicin, Doxorubicin, reference compound]
HEB; perfused dose 0.07 mg
  State of the HEB: Integral
[2]; [7]
  Vd in the cerebral parenchyma: 1.75 µL/g
[3]; 1 min
  Product quantity in brain: 0.14 microg/g of brain
[3]; 5 min
  Product quantity in brain: 0.05 microg/g of brain
[3]; 15 min
  Product quantity in brain: 0.04 microg/g of brain
[3]; 30 min
  Product quantity in brain: 0.05 microg/g of brain
[3]; 60 min
  Product quantity in brain: 0.04 microg/g of brain
[3]; 180 min
  Product quantity in brain: 0.03 microg/g of brain
[3]; 480 min
  Product quantity in brain: 0.04 microg/g of brain
[3]; 1360 min
  Product quantity in brain: 0.01 microg/g of brain
[6]; 15 min
  Product quantity in brain: 1.24 ug/g of brain
[6]; 120 min
  Product quantity in brain: 0.98 ug/g of brain
[6]; 480 min
  Product quantity in brain: 0.67 ug/g of brain
[4]
  Reduction of the influx constant after rinsing: about 25%

— US7399747B1, “Peptides carrying substances across the blood brain barrier” (SYNT:EM, priority 1998, dated 2008)
